Experimental data taken from paper doi:10.1101/094961 (bioRxiv, 2017).

Target: RNAP β' subunit with 6his tag (rpoC-6his), in purified δ-containing RNAP (B. subtilis, UniProt P37871 1-1199)
Experiment: cross-linking

RNAP β' subunit with 6his tag (rpoC-6his), in purified δ-containing RNAP, sequence (P37871 whole entry, stated change not applied): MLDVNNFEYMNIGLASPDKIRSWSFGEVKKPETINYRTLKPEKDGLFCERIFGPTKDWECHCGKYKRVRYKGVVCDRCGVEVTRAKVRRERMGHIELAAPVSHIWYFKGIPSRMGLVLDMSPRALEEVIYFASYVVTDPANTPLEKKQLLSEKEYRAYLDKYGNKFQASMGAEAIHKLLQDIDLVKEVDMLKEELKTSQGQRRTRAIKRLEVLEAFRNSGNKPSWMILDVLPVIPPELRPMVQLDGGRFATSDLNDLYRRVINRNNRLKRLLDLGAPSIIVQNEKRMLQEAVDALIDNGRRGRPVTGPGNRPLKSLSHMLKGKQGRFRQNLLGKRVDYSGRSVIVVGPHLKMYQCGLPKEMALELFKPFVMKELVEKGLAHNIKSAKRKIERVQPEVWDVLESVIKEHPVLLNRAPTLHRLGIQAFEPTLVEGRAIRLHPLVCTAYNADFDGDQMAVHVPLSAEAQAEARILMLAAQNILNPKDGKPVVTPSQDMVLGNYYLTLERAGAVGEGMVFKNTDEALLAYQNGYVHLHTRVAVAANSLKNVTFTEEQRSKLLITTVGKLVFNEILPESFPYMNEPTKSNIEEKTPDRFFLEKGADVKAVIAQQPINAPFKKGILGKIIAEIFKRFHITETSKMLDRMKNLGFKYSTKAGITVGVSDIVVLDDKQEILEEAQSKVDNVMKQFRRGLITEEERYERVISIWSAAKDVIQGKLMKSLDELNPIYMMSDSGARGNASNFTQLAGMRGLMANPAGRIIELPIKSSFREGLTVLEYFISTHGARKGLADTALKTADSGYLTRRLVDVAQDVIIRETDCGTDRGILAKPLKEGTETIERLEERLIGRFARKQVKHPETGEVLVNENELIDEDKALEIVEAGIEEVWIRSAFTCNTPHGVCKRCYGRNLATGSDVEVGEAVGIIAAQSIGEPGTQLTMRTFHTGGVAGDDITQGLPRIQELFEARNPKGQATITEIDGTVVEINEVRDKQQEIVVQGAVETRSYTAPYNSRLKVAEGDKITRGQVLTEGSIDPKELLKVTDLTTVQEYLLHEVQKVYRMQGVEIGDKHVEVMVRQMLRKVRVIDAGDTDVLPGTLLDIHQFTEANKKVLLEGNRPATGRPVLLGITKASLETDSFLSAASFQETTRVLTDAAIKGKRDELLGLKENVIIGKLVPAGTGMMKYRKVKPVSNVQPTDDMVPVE

B1: δ subunit (RpoE) of RNA polymerase (natural protein, UniProt P12464 1-173, looked up)
chain: MGIKQYSQEELKEMALVEIAHELFEEHKKPVPFQELLNEIASLLGVKKEELGDRIAQFYTDLNIDGRFLALSDQTWGLRSWYPYDQLDEETQPTVKAKKKKAKKAVEEDLDLDEFEEIDEDDLDLDEVEEELDLEADDFDEEDLDEDDDDLEIEEDIIDEDDEDYDDEEEEIK
  binding result: binds
